To fix the notation:
B1: H6 flagella (polymeric FliC flagellin) of E. coli O127:H6 (natural protein)
chain: MAQVINTNSLSLITQNNINKNQSALSSSIERLSSGLRINSAKDDAAGQAIANRFTSNIKGLTQAARNANDGISVAQTTEGALSEINNNLQRIRELTVQASTGTNSDSDLDSIQDEIKSRLDEIDRVSGQTQFNGVNVLAKDGSMKIQVGANDGQTITIDLKKIDSDTLGLNGFNVNGKGETANTAATLKDMSGFTAAAAPGGTVGVTQYTDKSAVASSVDILNAVAGADGNKVTTSADVGFGTPAAAVTYTYNKDTNSYSAASDDISSANLAAFLNPQARDTTKATVTIGGKDQDVNIDKSGNLTAADDGAVLYMDATGNLTKNNAGGDTQATLAKVATATGAKAATIQTDKGTFTSDGTAFDGASMSIDANTFANAVKNDTYTATVGAKTYSVTTGSAAADTAYMSNGVLSDTPPTYYAQADGSITTTEDAAAGKLVYKGSDGKLTTDTTSKAESTSDPLAALDDAISQIDKFRSSLGAVQNRLDSAVTNLNNTTTNLSEAQSRIQDADYATEVSNMSKAQIIQQAGNSVLAKANQVPQQVLSLLQG
B2: recombinant human galectin-4 (natural protein, UniProt P56470 1-323, looked up)
chain: MAYVPAPGYQPTYNPTLPYYQPIPGGLNVGMSVYIQGVASEHMKRFFVNFVVGQDPGSDVAFHFNPRFDGWDKVVFNTLQGGKWGSEERKRSMPFKKGAAFELVFIVLAEHYKVVVNGNPFYEYGHRLPLQMVTHLQVDGDLQLQSINFIGGQPLRPQGPPMMPPYPGPGHCHQQLNSLPTMEGPPTFNPPVPYFGRLQGGLTARRTIIIKGYVPPTGKSFAINFKVGSSGDIALHINPRMGNGTVVRNSLLNGSWGSEEKKITHNPFGPGQFFDLSIRCGLDRFKVYANGQHLFDFAHRLSAFQRVDTLEIQGDVTLSYVQI
notes: also called GAL4

Series [1] deals with the molecule itself. Kind of series: SEC. Background: In gel filtration, larger molecules generally elute earlier.
Series [2] has as its target B1. The series can be described thus: ELISA. To be noted: both partners purified. (In general: An ELISA detects its analyte on a solid surface through an enzyme-linked reagent.)

As to B1, the binding result in series [1] is reported as “binds”.

B2: the binding result in series [2] is “binds”.

(Values after article PMC7660914 (Microbiology, 2020).)
